Reference: US20250320279A1, “UNGULATE-DERIVED POLYCLONAL IMMUNOGLOBULIN SPECIFIC FOR INFLUENZA VIRUS AND USES THEREOF” (priority 2021, published 2025)

Target: hemagglutinin (HA) of influenza A/Brisbane/02/2018 H1N1 (Influenza A virus A/Brisbane/02/2018 (H1N1))
Experiment: cell-based or functional assay

Substance	HAI titer (reciprocal dilution)
SAB-176 Lot 1 V3 (antibody)	512
SAB-176 Lot 2 V3-V5 (antibody)	512
SAB-176 Lot 3 V3-V12 (antibody)	512
SAB-176 Lot 4 V3-V12 (antibody)	512
negative control IgG (antibody)	< 1

Target: hemagglutinin (HA) of influenza A/California/4/2009 pH1N1 (Influenza A virus A/California/4/2009 (pH1N1))
Experiment: cell-based or functional assay

Substance	HAI titer (Huber virus stock) (reciprocal dilution)	HAI titer (hVIVO virus stock) (reciprocal dilution)	HAI titer (reciprocal dilution)
SAB-176 Lot 1 V3 (antibody)	512	512	
SAB-176 Lot 2 V3-V5 (antibody)	512	1024	
SAB-176 Lot 3 V3-V12 (antibody)	512	512	
SAB-176 Lot 4 V3-V12 (antibody)	512	512	
negative control IgG (antibody)	< 1	< 1	< 1

Target: hemagglutinin (HA) of influenza A/Cambodia/e0826360/2020 (2021-22) H3N2 (Influenza A virus A/Cambodia/e0826360/2020 (H3N2))
Experiment: cell-based or functional assay

Substance	HAI titer (reciprocal dilution)
SAB-176 Lot 1 V3 (antibody)	128
SAB-176 Lot 2 V3-V5 (antibody)	256
SAB-176 Lot 3 V3-V12 (antibody)	256
SAB-176 Lot 4 V3-V12 (antibody)	256
negative control IgG (antibody)	< 1

Target: hemagglutinin (HA) of influenza A/Guangdong-maonan/2019 (Cell) H1N1 (Influenza A virus A/Guangdong-maonan/2019 (H1N1), (Cell))
Experiment: cell-based or functional assay

Substance	HAI titer (reciprocal dilution)
SAB-176 Lot 1 V3 (antibody)	512
SAB-176 Lot 2 V3-V5 (antibody)	512
SAB-176 Lot 3 V3-V12 (antibody)	512
SAB-176 Lot 4 V3-V12 (antibody)	512
negative control IgG (antibody)	< 1

Target: hemagglutinin (HA) of influenza A/Guangdong-maonan/2019 (Egg) H1N1 (Influenza A virus A/Guangdong-maonan/2019 (H1N1), (Egg))
Experiment: cell-based or functional assay

Substance	HAI titer (reciprocal dilution)
SAB-176 Lot 1 V3 (antibody)	512
SAB-176 Lot 2 V3-V5 (antibody)	512
SAB-176 Lot 3 V3-V12 (antibody)	512
SAB-176 Lot 4 V3-V12 (antibody)	512
negative control IgG (antibody)	< 1

Target: hemagglutinin (HA) of influenza A/Hong Kong/2671/2019 (Egg) H3N2 (Influenza A virus A/Hong Kong/2671/2019 (H3N2), (Egg))
Experiment: cell-based or functional assay

Substance	HAI titer (reciprocal dilution)
SAB-176 Lot 1 V3 (antibody)	64
SAB-176 Lot 2 V3-V5 (antibody)	128
SAB-176 Lot 3 V3-V12 (antibody)	256
SAB-176 Lot 4 V3-V12 (antibody)	256
negative control IgG (antibody)	< 1

Target: hemagglutinin (HA) of influenza A/Hong Kong/4801/2014 H3N2 (Influenza A virus A/Hong Kong/4801/2014 (H3N2))
Experiment: cell-based or functional assay

Substance	HAI titer (reciprocal dilution)
negative control IgG (antibody)	< 1

Target: hemagglutinin (HA) of influenza A/Kansas/14/2017 H3N2 (Influenza A virus A/Kansas/14/2017 (H3N2))
Experiment: cell-based or functional assay

Substance	HAI titer (reciprocal dilution)
SAB-176 Lot 1 V3 (antibody)	64
SAB-176 Lot 2 V3-V5 (antibody)	64
SAB-176 Lot 3 V3-V12 (antibody)	512
SAB-176 Lot 4 V3-V12 (antibody)	256
negative control IgG (antibody)	< 1

Target: hemagglutinin (HA) of influenza A/Michigan/45/2015 pH1N1 (Influenza A virus A/Michigan/45/2015 (pH1N1))
Experiment: cell-based or functional assay

Substance	HAI titer (reciprocal dilution)
SAB-176 Lot 1 V3 (antibody)	512
SAB-176 Lot 2 V3-V5 (antibody)	512
SAB-176 Lot 3 V3-V12 (antibody)	512
SAB-176 Lot 4 V3-V12 (antibody)	512
negative control IgG (antibody)	< 1

Target: hemagglutinin (HA) of influenza A/Singapore/INFIMH-16-0019/2016 H3N2 (Influenza A virus A/Singapore/INFIMH-16-0019/2016 (H3N2))
Experiment: cell-based or functional assay

Substance	HAI titer (reciprocal dilution)
SAB-176 Lot 1 V3 (antibody)	512
SAB-176 Lot 2 V3-V5 (antibody)	512
SAB-176 Lot 3 V3-V12 (antibody)	512
SAB-176 Lot 4 V3-V12 (antibody)	512
negative control IgG (antibody)	< 1

Target: hemagglutinin (HA) of influenza A/Switzerland/9715293/2013 H3N2 (Influenza A virus A/Switzerland/9715293/2013 (H3N2))
Experiment: cell-based or functional assay

Substance	HAI titer (reciprocal dilution)
negative control IgG (antibody)	< 1

Target: hemagglutinin (HA) of influenza A/Victoria/2570/2019 (2021-22) H1N1 (Influenza A virus A/Victoria/2570/2019 (H1N1))
Experiment: cell-based or functional assay

Substance	HAI titer (reciprocal dilution)
SAB-176 Lot 1 V3 (antibody)	256
SAB-176 Lot 2 V3-V5 (antibody)	256
SAB-176 Lot 3 V3-V12 (antibody)	256
SAB-176 Lot 4 V3-V12 (antibody)	256
negative control IgG (antibody)	< 1

Target: hemagglutinin (HA) of influenza B/Brisbane/60/2008 B-Vic (Influenza B virus B/Brisbane/60/2008 (B-Vic))
Experiment: cell-based or functional assay

Substance	HAI titer (reciprocal dilution)
negative control IgG (antibody)	< 1

Target: hemagglutinin (HA) of influenza B/California/12/2015 B-Yam (Influenza B virus B/California/12/2015)
Experiment: cell-based or functional assay

Substance	HAI titer (reciprocal dilution)
SAB-176 Lot 1 V3 (antibody)	128
SAB-176 Lot 2 V3-V5 (antibody)	128
SAB-176 Lot 3 V3-V12 (antibody)	128
SAB-176 Lot 4 V3-V12 (antibody)	128
negative control IgG (antibody)	< 1

Target: hemagglutinin (HA) of influenza B/Colorado/06/2017 B-Vic (Influenza B virus B/Colorado/06/2017 (B-Vic))
Experiment: cell-based or functional assay

Substance	HAI titer (reciprocal dilution)
SAB-176 Lot 1 V3 (antibody)	256
SAB-176 Lot 2 V3-V5 (antibody)	256
SAB-176 Lot 3 V3-V12 (antibody)	256
SAB-176 Lot 4 V3-V12 (antibody)	256
negative control IgG (antibody)	< 1

Target: hemagglutinin (HA) of influenza B/Maryland/15/2016 B-Vic (Influenza B virus B/Maryland/15/2016 (B-Vic))
Experiment: cell-based or functional assay

Substance	HAI titer (reciprocal dilution)
SAB-176 Lot 1 V3 (antibody)	256
SAB-176 Lot 2 V3-V5 (antibody)	256
SAB-176 Lot 3 V3-V12 (antibody)	128
SAB-176 Lot 4 V3-V12 (antibody)	256
negative control IgG (antibody)	< 1

Target: hemagglutinin (HA) of influenza B/Phuket/3073/2013 B-Yam (Influenza B virus B/Phuket/3073/2013 (B-Yam))
Experiment: cell-based or functional assay

Substance	HAI titer (reciprocal dilution)
SAB-176 Lot 1 V3 (antibody)	128
SAB-176 Lot 2 V3-V5 (antibody)	256
SAB-176 Lot 3 V3-V12 (antibody)	128
SAB-176 Lot 4 V3-V12 (antibody)	128
negative control IgG (antibody)	< 1

Target: hemagglutinin (HA) of influenza B/Washington/02/2019 B-Vic (Influenza B virus B/Washington/02/2019)
Experiment: cell-based or functional assay

Substance	HAI titer (reciprocal dilution)
SAB-176 Lot 1 V3 (antibody)	64
SAB-176 Lot 2 V3-V5 (antibody)	128
SAB-176 Lot 3 V3-V12 (antibody)	64
SAB-176 Lot 4 V3-V12 (antibody)	128
negative control IgG (antibody)	< 1
